Test results taken from patent publication US20230233632A1 (MYCOMAGIC BIOTECHNOLOGY, published 2023).

Target: T1, ACE2 tested for a complex with GMI by immunoprecipitation (human, UniProt Q9BYF1 18-805)
T1 construct: also called hACE2; angiotensin converting enzyme 2
Assay: immunoprecipitation

T1 sequence (Q9BYF1 18-805 limits assumed, one chain of several): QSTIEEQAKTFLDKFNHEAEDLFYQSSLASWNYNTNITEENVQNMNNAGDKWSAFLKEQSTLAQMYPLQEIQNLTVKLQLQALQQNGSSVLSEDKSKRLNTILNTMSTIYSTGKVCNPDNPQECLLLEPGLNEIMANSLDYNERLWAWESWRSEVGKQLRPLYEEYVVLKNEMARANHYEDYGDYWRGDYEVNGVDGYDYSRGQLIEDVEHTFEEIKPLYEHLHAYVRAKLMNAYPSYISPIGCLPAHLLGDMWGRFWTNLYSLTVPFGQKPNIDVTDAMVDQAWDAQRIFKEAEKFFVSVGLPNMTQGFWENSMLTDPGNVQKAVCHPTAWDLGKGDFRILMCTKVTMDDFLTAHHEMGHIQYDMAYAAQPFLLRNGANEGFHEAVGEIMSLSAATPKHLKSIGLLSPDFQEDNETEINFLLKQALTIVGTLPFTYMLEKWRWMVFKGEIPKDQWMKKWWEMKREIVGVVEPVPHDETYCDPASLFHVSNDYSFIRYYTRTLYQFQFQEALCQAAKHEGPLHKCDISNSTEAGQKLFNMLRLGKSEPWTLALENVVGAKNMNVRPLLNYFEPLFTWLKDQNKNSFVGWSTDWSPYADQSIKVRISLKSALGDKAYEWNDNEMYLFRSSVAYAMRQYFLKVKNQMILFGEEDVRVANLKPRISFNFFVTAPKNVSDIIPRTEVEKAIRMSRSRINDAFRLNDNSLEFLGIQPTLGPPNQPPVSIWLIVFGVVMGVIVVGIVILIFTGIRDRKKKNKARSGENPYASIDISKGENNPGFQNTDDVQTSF

B1: Ganoderma immunomodulatory protein (GMI) from Ganoderma microsporum (other)
chain: MSDTALIFTLAWNVKQLAFDYTPNWGRGRPSSFIDTVTFPTVLTDKAYTYRVVVSGKDLGVRPSYAVESDGSQKINFLEYNSGYGIADTNTIQVYVIDPDTGNNFIVAQWN
notes: also called His tagged-GMI; fungal immunomodulatory protein (FIP)
- binding result: no binding
